Source: the supplement of paper PMC10724198
± gives the standard deviation of the averaged measurements.

Assays:
Assay in all cases: protein stability index of tFT-peptide fusion (C-terminal peptide) (PSI (0-1 scale)); higher = more stable (slower turnover)
Saccharomyces cerevisiae [1] = details: temperature: 30 C
Method: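 MPS profiling in S. cerevisiae of the yeast C-terminome library: the last 12 aa of each annotated ORF are fused to the C-terminus of a sfGFP-mCherry timer, after a GGGS linker. Cells are FACS-sorted into 8 mCherry/sfGFP bins and deep-sequenced. PSI runs from 0 (unstable) to 1 (stable); wild type and das1Δ backgrounds, two technical replicates each.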

Saccharomyces cerevisiae [2] = system: Saccharomyces cerevisiae
Method: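 MPS profiling in S. cerevisiae of the tFT-X12 degron library: putative degron peptides plus stable controls, 12 aa, fused to the C-terminus of a sfGFP-mCherry timer. Cells are FACS-sorted into 8 mCherry/sfGFP bins and deep-sequenced. PSI runs from 0 (unstable) to 1 (stable). Backgrounds are wild type, das1Δ and doa10Δ at 30 °C, and wild type, das1Δ, cdc34-1 and cdc53-1 at 37 °C; 2-3 technical replicates each.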

Saccharomyces cerevisiae [3] = details: genetic background: wild type; temperature: 30 C
[4] = genetic background: das1 deletion
[5] = genetic background: cdc34-1, temperature: 37 C
[6] = genetic background: cdc53-1, temperature: 37 C
[7] = genetic background: das1 deletion, temperature: 30 C
[8] = genetic background: das1 deletion, temperature: 37 C
[9] = genetic background: doa10 deletion, temperature: 30 C
[10] = genetic background: wild type, temperature: 30 C
[11] = genetic background: wild type, temperature: 37 C

Sequence | protein stability index (Saccharomyces cerevisiae [1]; [4]) | protein stability index (Saccharomyces cerevisiae [1]; genetic background: wild type) | protein stability index (Saccharomyces cerevisiae [2]; [5]) | protein stability index (Saccharomyces cerevisiae [2]; [6]) | protein stability index (Saccharomyces cerevisiae [2]; [7]) | protein stability index (Saccharomyces cerevisiae [2]; [8]) | protein stability index (Saccharomyces cerevisiae [2]; [9]) | protein stability index (Saccharomyces cerevisiae [2]; [10]) | protein stability index (Saccharomyces cerevisiae [2]; [11]) | protein stability index (Saccharomyces cerevisiae [3])
PIQDFIFNLVGE [VTC3 C-terminal 12 aa] | 0.687 ± 0.0086 | 0.6981 ± 0.0027 |  |  |  |  |  |  |  | 
TLWNDNTSYPFL [PDR3 C-terminal 12 aa] | 0.756 ± 0.015 | 0.7571 ± 0.0029 |  |  |  |  |  |  |  | 
ESPTEDSVPHAE [CSA1 C-terminal 12 aa] | 0.709 ± 0.018 | 0.687 ± 0.032 |  |  |  |  |  |  |  | 
PVTAIALLEARR [YER190C-A C-terminal 12 aa] | 0.6783 ± 0.005 | 0.65 ± 0.01 |  |  |  |  |  |  |  | 
VYGSERDIRAKF [TES1 C-terminal 12 aa] | 0.8078 ± 0.007 | 0.816 ± 0.068 |  |  |  |  |  |  |  | 
LSVIYMGWSPFY [TEL1 C-terminal 12 aa] | 0.716 ± 0.018 | 0.773 ± 0.032 |  |  |  |  |  |  |  | 
EILSMPDLSKYQ [SDH5 C-terminal 12 aa] | 0.6922 ± 0.0032 | 0.704 ± 0.044 |  |  |  |  |  |  |  | 
RTDPDRYSRLSV [ILT1 C-terminal 12 aa] | 0.703 ± 0.027 | 0.7277 ± 0.0055 |  |  |  |  |  |  |  | 
GGGASSIVIEKI [ERG10 C-terminal 12 aa] | 0.697 ± 0.035 | 0.694 ± 0.011 |  |  |  |  |  |  |  | 
FFLEECHRIGSK [HEM12 C-terminal 12 aa] | 0.726 ± 0.015 | 0.7467 ± 0.007 |  |  |  |  |  |  |  | 
SIYDGTEEKIVY [DAL4 C-terminal 12 aa] | 0.689 ± 0.018 | 0.705 ± 0.01 |  |  |  |  |  |  |  | 
NEKENSLSLSRL [MGT1 C-terminal 12 aa] | 0.7183 ± 0.0017 | 0.752 ± 0.058 |  |  |  |  |  |  |  | 
LEKEKLFNNGNH [PRI2 C-terminal 12 aa] | 0.722 ± 0.053 | 0.722 ± 0.055 |  |  |  |  |  |  |  | 
FRRRLGDRFKKD [MRX7 C-terminal 12 aa] | 0.6895 ± 0.0044 | 0.695 ± 0.017 |  |  |  |  |  |  |  | 
NAIKNWTGVNVK [MIC26 C-terminal 12 aa] | 0.7 ± 0.0014 | 0.695 ± 0.0088 |  |  |  |  |  |  |  | 
EKFLGKKKTKTD [GPI16 C-terminal 12 aa] | 0.701 ± 0.06 | 0.689 ± 0.05 |  |  |  |  |  |  |  | 
RRFKKTEIIKNN |  |  | 0.625 ± 0.024 | 0.765 ± 0.048 | 0.653 ± 0.022 | 0.7804 ± 0.0062 | 0.1324 ± 0.00038 | 0.143 ± 0.053 | 0.29 ± 0.048 | 0.247 ± 0.004
VLFFLVTSSVYF |  |  | 0.124 ± 0.036 | 0.263 ± 0.03 | 0.201 ± 0.031 | 0.37 ± 0.0049 | 0.159 ± 0.0068 | 0.187 ± 0.0095 | 0.327 ± 0.0083 | 0.269 ± 0.04
RFFFFFPCLLAP |  |  | 0.349 ± 0.011 | 0.3411 ± 0.001 | 0.417 ± 0.019 | 0.525 ± 0.026 | 0.519 ± 0.025 | 0.418 ± 0.029 | 0.486 ± 0.006 | 0.457 ± 0.048
VFVFTFSLSFYC |  |  | 0.223 ± 0.031 | 0.326 ± 0.0073 | 0.25 ± 0.028 | 0.356 ± 0.019 | 0.257 ± 0.02 | 0.274 ± 0.018 | 0.3241 ± 0.0021 | 0.3465 ± 0.0031
LGIPKLLCFVCT |  |  | 0.424 ± 0.011 | 0.432 ± 0.0061 | 0.304 ± 0.023 | 0.465 ± 0.02 | 0.248 ± 0.0065 | 0.29 ± 0.019 | 0.421 ± 0.017 | 0.386 ± 0.019
RGWNGFWVVVVW |  |  | 0.216 ± 0.015 | 0.305 ± 0.03 | 0.239 ± 0.039 | 0.4155 ± 0.0011 | 0.213 ± 0.0046 | 0.227 ± 0.035 | 0.368 ± 0.032 | 0.307 ± 0.0078
SCIVRTLVPCPS |  |  | 0.377 ± 0.0049 | 0.419 ± 0.034 | 0.253 ± 0.04 | 0.4761 ± 0.0022 | 0.224 ± 0.016 | 0.27 ± 0.029 | 0.445 ± 0.0094 | 0.373 ± 0.022
RSWLCFIVFGLF |  |  | 0.368 ± 0.027 | 0.413 ± 0.03 | 0.317 ± 0.03 | 0.485 ± 0.015 | 0.238 ± 0.0067 | 0.234 ± 0.014 | 0.347 ± 0.011 | 0.313 ± 0.011
FCLFFFPSLFFF |  |  | 0.57 ± 0.11 | 0.538 ± 0.024 | 0.529 ± 0.042 | 0.604 ± 0.023 | 0.333 ± 0.012 | 0.295 ± 0.026 | 0.443 ± 0.017 | 0.371 ± 0.016
PPWRPVALLLLA |  |  | 0.206 ± 0.029 | 0.259 ± 0.022 | 0.247 ± 0.022 | 0.384 ± 0.007 | 0.0824 ± 0.02 | 0.0841 ± 0.018 | 0.117 ± 0.077 | 0.156 ± 0.013
LLLLGVSLFLVR |  |  | 0.282 ± 0.0053 | 0.378 ± 0.011 | 0.265 ± 0.019 | 0.454 ± 0.0081 | 0.223 ± 0.013 | 0.255 ± 0.018 | 0.4257 ± 0.0031 | 0.3657 ± 0.00075
